Test [1] deals with T1, human bombesin receptor subtype 3 (human, UniProt P32247 1-399).
T1 construct: bombesin receptor subtype 3 (BRS3), human; expressed in CHO cells, no reporter fragment named; In the radioligand assay the receptor stood in membrane fractions of the cells; in the calcium and NFAT-luciferase assays on whole cells; also called hBRS3; CHO-hBRS3; source: CHO cells stably expressing hBRS3
T1 sequence (looked up): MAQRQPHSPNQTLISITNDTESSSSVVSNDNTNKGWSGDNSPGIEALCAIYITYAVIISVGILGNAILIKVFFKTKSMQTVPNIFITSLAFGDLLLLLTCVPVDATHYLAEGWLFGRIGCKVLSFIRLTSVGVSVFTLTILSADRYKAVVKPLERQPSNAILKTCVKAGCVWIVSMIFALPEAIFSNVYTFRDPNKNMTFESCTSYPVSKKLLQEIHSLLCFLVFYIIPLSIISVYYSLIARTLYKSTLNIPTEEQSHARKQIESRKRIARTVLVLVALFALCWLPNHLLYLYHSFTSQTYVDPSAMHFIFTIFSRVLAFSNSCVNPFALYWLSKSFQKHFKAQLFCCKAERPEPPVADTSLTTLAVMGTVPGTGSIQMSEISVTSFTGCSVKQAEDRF
In words: radioligand binding; competition; 5 μg membrane fraction of CHO-hBRS3 cells with 0.1 nM radioligand and various concentrations of competitor, 2 h at room temperature, 50mM Tris-HCl (pH7.5), 5mM MgCl2; bound ligand separated on a GF/C filter. The conditions noted are these: one partner purified.

Test [2] deals with T1, human bombesin receptor subtype 3. In words: cell-based or functional assay.
Test [3] concerns the target neuromedin B receptor (human, UniProt P28336 1-390). Description: cell-based or functional assay.
Test [4] has as its target gastrin-releasing peptide receptor (human, UniProt P30550 1-384). Description: cell-based or functional assay.

As usually defined, the IC50 is the midpoint of a concentration-inhibition curve. High values mean weaker potency in that assay, low ones greater potency in that assay.

gastrin-releasing peptide receptor, sequence (P30550 whole entry): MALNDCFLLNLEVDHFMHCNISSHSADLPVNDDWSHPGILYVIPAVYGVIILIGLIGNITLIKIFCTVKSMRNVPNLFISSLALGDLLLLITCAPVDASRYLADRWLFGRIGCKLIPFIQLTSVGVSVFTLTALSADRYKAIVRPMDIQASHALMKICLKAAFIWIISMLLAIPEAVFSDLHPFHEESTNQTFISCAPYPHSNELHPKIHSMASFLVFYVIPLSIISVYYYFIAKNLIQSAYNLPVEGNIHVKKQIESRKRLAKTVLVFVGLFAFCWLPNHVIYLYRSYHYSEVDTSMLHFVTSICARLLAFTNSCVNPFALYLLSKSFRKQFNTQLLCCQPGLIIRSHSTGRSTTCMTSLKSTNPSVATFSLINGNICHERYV
neuromedin B receptor, sequence (P28336 whole entry): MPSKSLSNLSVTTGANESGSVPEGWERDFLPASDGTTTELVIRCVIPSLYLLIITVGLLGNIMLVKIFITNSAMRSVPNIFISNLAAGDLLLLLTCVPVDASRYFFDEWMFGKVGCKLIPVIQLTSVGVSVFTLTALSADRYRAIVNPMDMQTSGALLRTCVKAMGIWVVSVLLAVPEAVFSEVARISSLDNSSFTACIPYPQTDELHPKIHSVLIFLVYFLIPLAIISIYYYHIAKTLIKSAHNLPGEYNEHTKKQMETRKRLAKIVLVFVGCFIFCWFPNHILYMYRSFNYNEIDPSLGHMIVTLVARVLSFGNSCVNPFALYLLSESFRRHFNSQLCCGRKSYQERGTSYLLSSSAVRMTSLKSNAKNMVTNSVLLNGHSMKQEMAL

B1: peptide E (peptide)
chain: YGGFMRRVGRPEWWMDYQKRYGGFL
notes: peptide E, a partially processed product of the opioid peptide precursor proenkephalin A; 25 residues; also called P2; synthetic peptide E; source: synthetic peptide (chemically synthesized)
Molecule B1 gave a 50% inhibitory concentration (IC50) in test [1] of 361 nM. Besides, the “EC50 of NFAT-luciferase reporter activation in CHO cells expressing hBRS3” value in test [2] turned out to be 500 nM. Moreover, in test [3], the “EC50 of NFAT-luciferase reporter activation in CHO cells expressing hNMBR” value is 1100 nM. Also, the “EC50 of NFAT-luciferase reporter activation in CHO cells expressing hGRPR” value in test [4] is 3500 nM.
